{"source": "patent WO2007059715A2", "about": "(dated 2007)", "target": "chimeric protein PMEC1-His6 (dengue 2 virus, strain 1409, genotype …)", "test": "dot blot, 10 μg protein spotted, antibody 10 μg/ml", "data": [{"binder": "monoclonal antibody 4G2 (antibody, V domains shown, also called AcM 4G2; Mab 4G2) VH: EVQLQQSGPELVKPGTSVKISCKTSGYTFTEYTIHWVKQSHGKSLAWIGGIDPNSGGTNYSPNFKGKATLTVDKSSSTAYMDLRSLSSEDSAVYFCARIYHYDGYFDVWGAGTAVTVSS VL: NIVMTQSPKSMSMSVGERVTLTCKASENVVTYVSWYQQKPEQSPKLLIYGASNRYTGVPDRFTGSGSATDFTLTISSVQAEDLADYHCGQGYSYPYTFGGGTKLEIK", "values": [{"measurement": "binding result", "value": "binds"}]}]}
